Experiments:
[1] = target: Cy3-labelled, prenylated Rho, wild type, GDP-bound (Cy3 at the N-terminus (Cy3 N-t labeled LPETGG peptide joined by sortase); geranylgeranyl by in vitro prenylation (C-terminal prenyl moiety); GDP-bound); assay: GDP-bound; extraction from supported lipid bilayers
[2] = target: Cy3-labelled, prenylated Cdc42, wild type, GDP-bound (Cy3 at the N-terminus (Cy3 N-t labeled LPETGG peptide joined by sortase); geranylgeranyl by in vitro prenylation (C-terminal prenyl moiety); GDP-bound); assay: as above
Sequence of Cy3-labelled, prenylated Cdc42, wild type, GDP-bound (Cy3 at the N-terminus (Cy3 N-t labeled LPETGG peptide joined by sortase); geranylgeranyl by in vitro prenylation (C-terminal prenyl moiety); GDP-bound) (P60953 whole entry): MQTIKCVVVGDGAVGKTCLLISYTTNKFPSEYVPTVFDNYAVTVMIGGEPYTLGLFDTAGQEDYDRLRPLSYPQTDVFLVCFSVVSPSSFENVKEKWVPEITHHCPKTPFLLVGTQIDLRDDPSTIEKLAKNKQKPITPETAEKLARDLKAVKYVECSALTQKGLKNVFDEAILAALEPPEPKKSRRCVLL

[3] = target: Cy3-labelled, prenylated Cdc42 Q61L, GTP-bound (Cy3 at the N-terminus (Cy3 N-t labeled LPETGG peptide joined by sortase); geranylgeranyl by in vitro prenylation (C-terminal prenyl moiety); GTP-bound); assay: GTP-bound; extraction from supported lipid bilayers
Sequence of Cy3-labelled, prenylated Cdc42 Q61L, GTP-bound (Cy3 at the N-terminus (Cy3 N-t labeled LPETGG peptide joined by sortase); geranylgeranyl by in vitro prenylation (C-terminal prenyl moiety); GTP-bound) (chain, as listed by the source Q61L): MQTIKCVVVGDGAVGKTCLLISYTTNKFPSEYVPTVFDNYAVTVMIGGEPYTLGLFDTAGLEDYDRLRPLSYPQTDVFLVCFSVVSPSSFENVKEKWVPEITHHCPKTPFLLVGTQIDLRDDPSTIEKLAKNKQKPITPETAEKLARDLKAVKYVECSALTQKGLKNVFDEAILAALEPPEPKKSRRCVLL

[4] = target: Cy3-labelled, prenylated Rho Q63L, GTP-bound (Cy3 at the N-terminus (Cy3 N-t labeled LPETGG peptide joined by sortase); geranylgeranyl by in vitro prenylation (C-terminal prenyl moiety); GTP-bound); assay: as above
Sequence of Cy3-labelled, prenylated Rho Q63L, GTP-bound (Cy3 at the N-terminus (Cy3 N-t labeled LPETGG peptide joined by sortase); geranylgeranyl by in vitro prenylation (C-terminal prenyl moiety); GTP-bound) (chain, as listed by the source Q63L): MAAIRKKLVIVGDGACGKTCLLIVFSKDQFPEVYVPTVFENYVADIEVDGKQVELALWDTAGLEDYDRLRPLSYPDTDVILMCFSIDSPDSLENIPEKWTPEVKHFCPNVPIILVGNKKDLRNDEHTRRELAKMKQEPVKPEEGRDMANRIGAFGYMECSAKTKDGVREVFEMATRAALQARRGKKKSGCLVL

[5] = target: Cy3-labelled, prenylated Rho G14V, GTPγS-bound (Cy3 at the N-terminus (Cy3 N-t labeled LPETGG peptide joined by sortase); geranylgeranyl by in vitro prenylation (C-terminal prenyl moiety); GTPγS-bound); assay: GTPγS-bound; extraction from supported lipid bilayers
Sequence of Cy3-labelled, prenylated Rho G14V, GTPγS-bound (Cy3 at the N-terminus (Cy3 N-t labeled LPETGG peptide joined by sortase); geranylgeranyl by in vitro prenylation (C-terminal prenyl moiety); GTPγS-bound) (chain, as listed by the source G14V): as the sequence (chain, as listed by the source Q63L) above, with G14V, L63Q counted along it

[6] = target: Cy3-labelled, prenylated Cdc42 G12V, GTPγS-bound (Cy3 at the N-terminus (Cy3 N-t labeled LPETGG peptide joined by sortase); geranylgeranyl by in vitro prenylation (C-terminal prenyl moiety); GTPγS-bound); assay: as above
Sequence of Cy3-labelled, prenylated Cdc42 G12V, GTPγS-bound (Cy3 at the N-terminus (Cy3 N-t labeled LPETGG peptide joined by sortase); geranylgeranyl by in vitro prenylation (C-terminal prenyl moiety); GTPγS-bound) (chain, as listed by the source G12V): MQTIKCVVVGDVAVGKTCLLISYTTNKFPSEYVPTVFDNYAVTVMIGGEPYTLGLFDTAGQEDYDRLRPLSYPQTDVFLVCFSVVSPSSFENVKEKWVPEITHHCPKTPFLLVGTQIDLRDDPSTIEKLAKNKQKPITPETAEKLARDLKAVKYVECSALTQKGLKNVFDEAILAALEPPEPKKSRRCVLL

Sequence of Cy3-labelled, prenylated Rho, wild type, GDP-bound (Cy3 at the N-terminus (Cy3 N-t labeled LPETGG peptide joined by sortase); geranylgeranyl by in vitro prenylation (C-terminal prenyl moiety); GDP-bound) (chain, as listed by the source): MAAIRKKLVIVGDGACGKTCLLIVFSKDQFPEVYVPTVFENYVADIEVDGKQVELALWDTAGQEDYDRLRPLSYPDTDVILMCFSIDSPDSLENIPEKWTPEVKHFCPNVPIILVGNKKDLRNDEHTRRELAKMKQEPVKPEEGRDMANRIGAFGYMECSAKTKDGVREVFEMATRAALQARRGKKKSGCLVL

Kd [1]: 5.77 µM
Kd [2]: 3.41 µM
Kd [3]: 14.4 µM
Kd [4]: 19.6 µM
Kd [5]: 5.43 µM
Kd [6]: 4.95 µM
B1: Xenopus laevis RhoGDI, wild type (natural protein)
chain: MAEHEPTPEQLHQIAAENQDEEHSVDYKPPAQKSIKEIQELDQDDESLRKYKEALLGSLPSSADPEASNVVVTKLTLLCDCAPGPLELDLTGDLEKFKKQSFTLKEGVEYRIKISFKVNKEIVSGLRYQQQTYRKGVRLDRTRYMVGSYGPRVDEYEFLTPIEEAPNGMLARGCYNIKSLFTDDDKSNHLSWEWNLHIKNDWKS
